B1: recombinant Desmodus rotundus salivary plasminogen activator alpha1 (DSPAα1) from transgenic T3 tobacco seeds, with C-terminal 6xHis tag and KDEL (protein)
chain: AYGVACKDEITQMTYRRQESWLRPEVRSKRVEHCQCDRGQARCHTVPVNSCSEPRCFNGGTCWQAVYFSDFVCQCPAGYTGKRCEVDTRATCYEGQGVTYRGTWSTAESRVECINWNSSLLTRRTYNGRMPDAFNLGLGNHNYCRNPNGAPKPWCYVIKAGKFTSESCSVPVCSKATCGLRKYKEPQLHSTGGLFTDITSHPWQAAIFAQNRRSSGERFLCGGILISSCWVLTAAHCFQESYLPDQLKVVLGRTYRVKPGEEEQTFKVKKYIVHKEFDDDTYNNDIALLQLKSDSPQCAQESDSVRAICLPEANLQLPDWTECELSGYGKHKSSSPFYSEQLKEGHVRLYPSSRCAPKFLFNKTVTNNMLCAGDTRSGEIYPNVHDACQGDSGGPLVCMNDNHMTLLGIISWGVGCGEKDVPGVYTKVTNYLGWIRDNMHLHHHHHHKDEL
B2: recombinant human tissue plasminogen activator (t-PA) from transgenic T1 tobacco seeds, with C-terminal 6xHis tag and KDEL (protein)
chain: SYQVICRDEKTQMIYQQHQSWLRPVLRSNRVEYCWCNSGRAQCHSVPVKSCSEPRCFNGGTCQQALYFSYFVCQCPEGFAGKCCEIDTRATCYEDQGISYRGTWSTAESGAECTNWNSSALAQKPYSGRRPDAIRLGLGNHNYCRNPDRDSKPWCYVFKAGKYSSEFCSTPACSEGNSDCYFGNGSAYRGTHSLTESGASCLPWNSMILIGKVYTAQNPSAQALGLGKHNYCRNPDGDAKPWCHVLKNRRLTWEYCDVPSCSTCGLRQYSQPQFRIKGGLFADIASHPWQAAIFAKHRRSPGERFLCGGILISSCWILSAAHCFQERFPPHHLTVILGRTYRVVPGEEEQKFEVEKYIVHKEFDDDTYDNDIALLQLKSDSSRCAQESSVVRTVCLPPADLQLPDWTECELSGYGKHEALSPFYSERLKEAHVRLYPSSRCTSQHLLNRTVTDNMLCAGDTRSGGPQANLHDACQGDSGGPLVCLNDGRMTLVGIISWGLGCGQKDVPGVYTKVTNYLDWIRDNMRPHHHHHHKDEL

Biological target: fibrin (formed in the agarose plate from fibrinogen and thrombin)

Row | Protein | fibrin plate assay (fibrin degradation; lytic area on the fibrin plate)
1 | B1 | recombinant t-PA from T1 seeds and DSPAα1 from T3 homologous seeds can degrade fibrin
2 | B2 | recombinant t-PA from T1 seeds and DSPAα1 from T3 homologous seeds can degrade fibrin
